This data set deals with the molecule itself. As to the kind of experiment: fluorescence correlation spectroscopy.

B1: HsSAS-6–[F131E] with a C-terminal GFP (natural protein, human, UniProt Q6UVJ0 1-657, looked up)
chain: MSQVLFHQLVPLQVKCKDCEERRVSIRMSIELQSVSNPVHRKDLVIRLTDDTDPFFLYNLVISEEDFQSLKFQQGLLVDFLAFPQKFIDLLQQCTQEHAKEIPRFLLQLVSPAAILDNSPAFLNVVETNPEKHLTHLSLKLLPGNDVEIKKFLAGCLKCSKEEKLSLMQSLDDATKQLDFTRKTLAEKKQELDKLRNEWASHTAALTNKHSQELTNEKEKALQAQVQYQQQHEQQKKDLEILHQQNIHQLQNRLSELEAANKDLTERKYKGDSTIRELKAKLSGVEEELQRTKQEVLSLRRENSTLDVECHEKEKHVNQLQTKVAVLEQEIKDKDQLVLRTKEAFDTIQEQKVVLEENGEKNQVQLGKLEATIKSLSAELLKANEIIKKLQGDLKTLMGKLKLKNTVTIQQEKLLAEKEEKLQKEQKELQDVGQSLRIKEQEVCKLQEQLEATVKKLEESKQLLKNNEKLITWLNKELNENQLVRKQDVLGPSTTPPAHSSSNTIRSGISPNLNVVDGRLTYPTCGIGYPVSSAFAFQNTFPHSISAKNTSHPGSGTKVQFNLQFTKPNASLGDVQSGATISMPCSTDKENGENVGLESKYLKKREDSIPLRGLSQNLFSNSDHQRDGTLGALHTSSKPTALPSASSAYFPGQLPNS
As usually defined, the stoichiometry N is the number of molecules, sites or subunits per partner or assembly. Regarding B1, the “brightness relative to monomeric GFP” value is approximately 1.6 fold and the “stoichiometry N” value turned out to be 2.

Source of the values: PMC3941056 (The Journal of Cell Biology, 2014).
